From the Human Domainome abundance scans (Beltran et al. 2025)
± gives the uncertainty stated by the source.

B1: Homeobox protein cut-like 1, residues 548 to 629; numbered along this chain, P39880 (parent)
chain: GEEMDTAEIARQVKEQLIKHNIGQRIFGHYVLGLSQGSVSEILARPKPWNKLTVRGKEPFHKMKQFLSDEQNILALRSIQGR

Variants of: B1
Assay: abundance fitness (aPCA) (normalised: wild type 0, dead -1); higher = more abundant; growth selection in yeast, the domain comes from the species named
Settings: Homo sapiens

Variant	abundance fitness
IEEMDTAEIARQVKEQLIKHNIGQRIFGHYVLGLSQGSVSEILARPKPWNKLTVRGKEPFHKMKQFLSDEQNILALRSIQGR [G1I]	0.049 ± 0.17
KEEMDTAEIARQVKEQLIKHNIGQRIFGHYVLGLSQGSVSEILARPKPWNKLTVRGKEPFHKMKQFLSDEQNILALRSIQGR [G1K]	-0.035 ± 0.071
LEEMDTAEIARQVKEQLIKHNIGQRIFGHYVLGLSQGSVSEILARPKPWNKLTVRGKEPFHKMKQFLSDEQNILALRSIQGR [G1L]	-0.03 ± 0.059
MEEMDTAEIARQVKEQLIKHNIGQRIFGHYVLGLSQGSVSEILARPKPWNKLTVRGKEPFHKMKQFLSDEQNILALRSIQGR [G1M]	0.038 ± 0.073
NEEMDTAEIARQVKEQLIKHNIGQRIFGHYVLGLSQGSVSEILARPKPWNKLTVRGKEPFHKMKQFLSDEQNILALRSIQGR [G1N]	-0.012 ± 0.11
PEEMDTAEIARQVKEQLIKHNIGQRIFGHYVLGLSQGSVSEILARPKPWNKLTVRGKEPFHKMKQFLSDEQNILALRSIQGR [G1P]	-0.044 ± 0.083
QEEMDTAEIARQVKEQLIKHNIGQRIFGHYVLGLSQGSVSEILARPKPWNKLTVRGKEPFHKMKQFLSDEQNILALRSIQGR [G1Q]	-0.051 ± 0.089
REEMDTAEIARQVKEQLIKHNIGQRIFGHYVLGLSQGSVSEILARPKPWNKLTVRGKEPFHKMKQFLSDEQNILALRSIQGR [G1R]	-0.041 ± 0.035
SEEMDTAEIARQVKEQLIKHNIGQRIFGHYVLGLSQGSVSEILARPKPWNKLTVRGKEPFHKMKQFLSDEQNILALRSIQGR [G1S]	-0.004 ± 0.046
TEEMDTAEIARQVKEQLIKHNIGQRIFGHYVLGLSQGSVSEILARPKPWNKLTVRGKEPFHKMKQFLSDEQNILALRSIQGR [G1T]	-0.035 ± 0.064
VEEMDTAEIARQVKEQLIKHNIGQRIFGHYVLGLSQGSVSEILARPKPWNKLTVRGKEPFHKMKQFLSDEQNILALRSIQGR [G1V]	-0.01 ± 0.037
WEEMDTAEIARQVKEQLIKHNIGQRIFGHYVLGLSQGSVSEILARPKPWNKLTVRGKEPFHKMKQFLSDEQNILALRSIQGR [G1W]	-0.172 ± 0.049
YEEMDTAEIARQVKEQLIKHNIGQRIFGHYVLGLSQGSVSEILARPKPWNKLTVRGKEPFHKMKQFLSDEQNILALRSIQGR [G1Y]	0.075 ± 0.18
GAEMDTAEIARQVKEQLIKHNIGQRIFGHYVLGLSQGSVSEILARPKPWNKLTVRGKEPFHKMKQFLSDEQNILALRSIQGR [E2A]	-0.121 ± 0.029
GCEMDTAEIARQVKEQLIKHNIGQRIFGHYVLGLSQGSVSEILARPKPWNKLTVRGKEPFHKMKQFLSDEQNILALRSIQGR [E2C]	-0.137 ± 0.056
GDEMDTAEIARQVKEQLIKHNIGQRIFGHYVLGLSQGSVSEILARPKPWNKLTVRGKEPFHKMKQFLSDEQNILALRSIQGR [E2D]	-0.154 ± 0.05
GFEMDTAEIARQVKEQLIKHNIGQRIFGHYVLGLSQGSVSEILARPKPWNKLTVRGKEPFHKMKQFLSDEQNILALRSIQGR [E2F]	-0.107 ± 0.086

Variant	abundance fitness
GGEMDTAEIARQVKEQLIKHNIGQRIFGHYVLGLSQGSVSEILARPKPWNKLTVRGKEPFHKMKQFLSDEQNILALRSIQGR [E2G]	-0.145 ± 0.026
GHEMDTAEIARQVKEQLIKHNIGQRIFGHYVLGLSQGSVSEILARPKPWNKLTVRGKEPFHKMKQFLSDEQNILALRSIQGR [E2H]	-0.256 ± 0.12
GIEMDTAEIARQVKEQLIKHNIGQRIFGHYVLGLSQGSVSEILARPKPWNKLTVRGKEPFHKMKQFLSDEQNILALRSIQGR [E2I]	-0.261 ± 0.11
GKEMDTAEIARQVKEQLIKHNIGQRIFGHYVLGLSQGSVSEILARPKPWNKLTVRGKEPFHKMKQFLSDEQNILALRSIQGR [E2K]	-0.116 ± 0.039
GLEMDTAEIARQVKEQLIKHNIGQRIFGHYVLGLSQGSVSEILARPKPWNKLTVRGKEPFHKMKQFLSDEQNILALRSIQGR [E2L]	-0.193 ± 0.036
GPEMDTAEIARQVKEQLIKHNIGQRIFGHYVLGLSQGSVSEILARPKPWNKLTVRGKEPFHKMKQFLSDEQNILALRSIQGR [E2P]	-0.478 ± 0.052
GQEMDTAEIARQVKEQLIKHNIGQRIFGHYVLGLSQGSVSEILARPKPWNKLTVRGKEPFHKMKQFLSDEQNILALRSIQGR [E2Q]	-0.126 ± 0.04
GREMDTAEIARQVKEQLIKHNIGQRIFGHYVLGLSQGSVSEILARPKPWNKLTVRGKEPFHKMKQFLSDEQNILALRSIQGR [E2R]	-0.188 ± 0.027
GSEMDTAEIARQVKEQLIKHNIGQRIFGHYVLGLSQGSVSEILARPKPWNKLTVRGKEPFHKMKQFLSDEQNILALRSIQGR [E2S]	-0.087 ± 0.037
GTEMDTAEIARQVKEQLIKHNIGQRIFGHYVLGLSQGSVSEILARPKPWNKLTVRGKEPFHKMKQFLSDEQNILALRSIQGR [E2T]	-0.117 ± 0.038
GVEMDTAEIARQVKEQLIKHNIGQRIFGHYVLGLSQGSVSEILARPKPWNKLTVRGKEPFHKMKQFLSDEQNILALRSIQGR [E2V]	-0.17 ± 0.028
GWEMDTAEIARQVKEQLIKHNIGQRIFGHYVLGLSQGSVSEILARPKPWNKLTVRGKEPFHKMKQFLSDEQNILALRSIQGR [E2W]	-0.202 ± 0.036
GYEMDTAEIARQVKEQLIKHNIGQRIFGHYVLGLSQGSVSEILARPKPWNKLTVRGKEPFHKMKQFLSDEQNILALRSIQGR [E2Y]	-0.175 ± 0.066
GEAMDTAEIARQVKEQLIKHNIGQRIFGHYVLGLSQGSVSEILARPKPWNKLTVRGKEPFHKMKQFLSDEQNILALRSIQGR [E3A]	-0.064 ± 0.029
GECMDTAEIARQVKEQLIKHNIGQRIFGHYVLGLSQGSVSEILARPKPWNKLTVRGKEPFHKMKQFLSDEQNILALRSIQGR [E3C]	-0.142 ± 0.046
GEDMDTAEIARQVKEQLIKHNIGQRIFGHYVLGLSQGSVSEILARPKPWNKLTVRGKEPFHKMKQFLSDEQNILALRSIQGR [E3D]	0.001 ± 0.042
